Experimental data as given in the DeepSol protein solubility set.

assay: soluble on expression in E. coli; label from the status in PepcDB or PDB records

Sequence | soluble on expression in E. coli
MRRRRVLLLLLSTTTFLRVSTAQQDEPKASVVEVQTKLGTVRGTESDHGNKRVRSFLGVPFAEPPINEHRFKKPTPARPWNGTISANTLSPACFQGRDSYDPTFWGSEMWNANTPVSEDCLYVNIWAPADAYNLTVLVWLFGGGFWYGSPSLLLYDGKELATRGNVIVVNINYRVGPFGYLFLDHEDVPGNMGMLDQQLALYWIRDHIFSFGGNPARISLVGESAGAASIVAHLIAPASKGLFQNGILQSGSLDNKWSMDSPKRAKQKSTALADLVGCNQTKITDQTACLRNTPAQLLIDNIWNVGLNFLEFPFAIVSKDQNFFKHLDGFIALREGTYSTDVNLMFGINHDEGNFWNIYNLAKFFDKQSVKPGLDRDEFHECVDTAFAVQPELVRTAAKYVYSDPKCTDPKKKTDFYTEQVNQMVGDYFFTCDSIWFAHNYPKMAGNQSNVFVYYFDQPSSANPWPKWTGVMHGYEIEYVFGVPLHNTTAGYTKEEMDVSEKVIDFWTTFANTGVPSLRKRAVGTTQKIKWDRYDGTDHTTWMNIKTGSFRMIQEIKKVECDLWRNAKDMEYSAYKEELATTSSSTLTQYTIYLILLSAFQLVFNFF | not soluble
DVLESTIKAQKSRALNRKNLNYKQLLNTFGSLIGLVFLKSYEQGERTYLGMLSRGYSKDSNIKTLGQK | not soluble
MAHHHHHHMPRDTHVLRFKVLTVECAALPDGQQYTVMYHRGNSNRSTPCYTAQGGVINFASMPEGAAVVHFKAGHGGGRFAPKYIRFMIEEYTRGMPRRLVGETEADCTQVLKDYGASGSGILTVVFRLYGTTAKMRIAVLVYPEHAPPLSFDGLIDPSEVAAPLPTQAVKVMSRGEAMMILMGLETLLERRRAMKAEGQSLPQSREEKKLAELEKRRKALVGSEGLATEVIKTRCEEVVAVQYTALARKHRNNFIGQTAAYLREMAMLAGEDFIGDDGDSSGDTVLEQLNRVNRSIEEVEMQVKKLEEEQAALRRIQHKVDVMAELTVSLDKVAALQQKMQVLKESRTALTEAMKKQAAKKNTPLAREVTAINTRIAALNAEQQQMAPRIQHMVAVAASHVVKWARSKNPPELDTKSCIDSLHETGGNARNPVDDLFSDAGKPKTSKEQSMLDDVQRKQVVEALKGLETTTAPLSTRSPTSASSSSGHRTPRDLFADAGLPSMGDFSDTKPKEEETATKRKGDTSTTPLHEDPLKPSGLGVDMFSAKPAPAAASNVPAGLPSMNDFMRSSTASRQQSAQPTFDFGSILQTSSVSPQMGGGFVLEPQPSEAAASSFAAAAPSAVSGAYQTKDYPYYDEMDDFTVPPDAADSKNYGAVEITGGIFSFQDDTSSPAYVAPRPTFDFGPSSGGDDRPSGVGVTVSPAETFSFGGGAADELSTNNPRNSSDNPYTGITNLPTYNFSS | soluble
MGSDKIHHHHHHMIQKGLEGVKICESSICYLDGINGRLYYRGIPVEELAEKSTFEETAYFLWYGKLPTKSELEEFKRKMADYRELPAEALGILYHLPKNLHYIDVLKIFLSIHGSMDGNDEDLREKAIRVASVFPTILAYYYRYSKGKELIRPRKDLSHVENFYYMMFGERNEKIRLLESAFILLMEQDINASTFAALVIASTLSDLYSCIVGALGALKGPLHGGASEKVPPMLEEIGSEDRVEEFVQKCLKEKRKIMGFGHRVYKTYDPRAVFLKRVLQEHFPDSKLFRIASKLEEYIVSNKIKNIYPNVDLYSSVLFEELGFPRNMFTALFATARVVGWTAHVIEYVSDNKLIRPTSEYVGPMDVEYIPIERRDENG | not soluble
TELKPLLIELGTEELPVNALPNLSRAFFEGVLAGLERRGIVVDHGEAKSLSTPRRLAVLLTAVAVEQPKQYRELFGPYLNTAFDTEGKPTKALEGFAAKCGVNWRTLERIRDTKGERFVHRVVVPGERTDALLPGILTEAIAGMPIPKPMRWGAHEYLFARPVHWLVMLFGQDVVEAEIMGVKAGRISRGHRFLYDKPVSLSGPQNYIDVLQAAYVLVDPAARRARIVAEIEAVARQVGGVARITEDNVAQVVNLVEWPSAVLCSFERVFLEVPQEALIQTMEVNQKFFPVLDSLGKLTEKFIGIANIESNDVAEVAKGYERVIRPRFSDAKFFFNEDLKQGLKAMGERLRTVTYHAKLGTLADKVARVLVLAEAIAPQIGVDPLLARRVALLSKNDLQSRMVNEFPELQGVAGHHYALISGELPEVAMAIEDAYRPRFSGDEIARSPLGKVLGLAERLDTLACGFAVGMKPTGNKDPFGLRRNALGLARTIIESRFDLDLKVLLDQASDWVAFATTIEQERHAQESVKQSKKEAAVKHSVPQVSDEKSARIEELYDFIVERLRGYYADKGIPTTHFNAVAELKPVS | not soluble
MVKRREAFEIEGKRVIAGSQMGIKLPAAKLYTDTQLDIHVEVFHGVKPGPTLLVCAAIHGDELNGIEICRRLLGRVNPKNLAGTLIVVPIVNVFGFIQQSRYLPDRRDLNRCFPGSSKGALASRLANLFATQLLVHATHVIDLHTGAIHRDNLPQIRCDTNDETMLAMANAFGAPLIMHSKARSVSMRGYANQQGIPCILYEAGEALRFSELAIKSGLKGVLNVMRSLGMLKGRVSNKIASVSAIRSYWIRSESDGLVNMKLKLGQRVNKGYIIAHIVSPHGGDSVAIRAPTDGIIIGISNIPVTNEGEGMFHIAQFEGDEIEIANEQLDEFLMEYA | not soluble
MTQVTVKELAQVVDTPVERLLLQMRDAGLPHTSAEQVVTDSEKQALLTHLKGSHGDRASEPRKITLQRKTTTTLKVGGSKTVSVEVRKKKTYVKRSPDEIEAERQRELEEQRAAEEAERLKAEEAAARQRAEEEARKAEEAARAKAAQEAAATAGAEPAVVADVAVAEPVAKPAAVEERKKEEPRRVPKRDEDDDRRDRKHTQHRPSVKEKEKVPAPRVAPRSTDEESDGYRRGGRGGKSKLKKRNQHGFQNPTGPIVREVNIGETITVAELAAQMSVKGAEVVKFMFKMGSPVTINQVLDQETAQLVAEELGHKVKLVSENALEEQLAESLKF | not soluble
RLCKALYSFQARQDDELNLEKGDIVIIHEKKEEGWWFGSLNGKKGHFPAAYVEELPSNAGNTATKA | soluble
WCAETAPEPQVEPEPEVLPEPDRGSATPAELGINSLDIVRLANRIEDATGTRPSLATLLNQPWQESLAMVEVLEPRPALASEQKPELVPDRDREVIDVVGAGMALGARIRAEVPISEEPVEDQFVQVGQWLKQLRAVVEPAGCMQVTPPSGNILCAIDITPGEKADVSDHAPLTPLQLGYLVGRADTWLGEPVAPHYYTEVEVADLDVVALQRALDEVVRAHPALMLGVHDDGNQGLSEALRPRLVVTDLRDHPDPDGELERIRAVGCAGVSDPLGTAWFQLRATLLPTAVR | not soluble
TDPDFLIRLATNLKEEKSKRLEAEQKIEAQRPKVLFADAVSDTEGTILIRDLAKLIQQNGVDIGEKRLFEWLRQNGYLISRRGTDYNRPTQKSMELGLFKIKETAIMRSSGAHTAITAKVTGKGQLYFVNKFLEQSLV | not soluble
MRKEEVLALLRSRWPELCALGVAELYLFGSLARGEARPRSDVDLLVAFATPPGFEGYWRVKEFLESLLGRPVDLVMKGALKPWAVSEVLGEAVRVA | soluble
MSLPKIIPAIMAGGRGTRLWPLSRATAAKQFLKLIGEETLFQDTLKRVSDAKVYGAPLVITNEEFRFLVAEQARELGVTLSSIVLEPVPRNTAAAVAVAARIVADRFGEDALLLVLPSDHAITVDDTYKKCVRSACIAAAEGKLVTFGIQPTWPATGYGYIERGTYLGKDVHAVQCFVEKPSLEKAAALLETGNYYWNSGMFLFQAASIIAELEEHAPDVLSAVHAAVRGSTVDADFIRLAPESFSQAPSISIDYALMEKTANAAVVCSDFAWSDLGSWDAVWKNEEQNADGNVLKGNVTACNTKNSLVLSHTAHLAVQGMDGVAVIASEDAVFVGRLEEAHEIGNLVKRLAADENTARLTELHPTLIRPWGGYTTMLNGDRFQVRRLFVRPGKMLSLHKHFHRSEHWICVKGTAEVTIEDRVTILHENQSIYIPEGAIHRLGNPGKIMLELVEIQTGAYLGEDDIIRVADESRNEMPDSREGHHHHHH | not soluble
MSRFDSGLPSVRQVQLLIKDQTPVEIKLLTGDSLFGTIRWQDTDGLGLVDDSERSTIVRLAAIAYITPRR | soluble
MEATQQAERKSMNKSQAFANASHDIRGALAGMKGLIDICRDGVKPGSDVDTTLNQVNVCAKDLVALLNSVLDMSKIESGKMQLVEEDFNLSKLLEDVIDFYHPVAMKKGVDVVLDPHDGSVFKFSNVRGDSGRLKQILNNLVSNAVKFTVDGHIAVRAWAQRPGSNSSVVLASYPKGVSKFVKSMFCKNKEESSTYETEISNSIRNNANTMEFVFEVDDTGKGIPMEMRKSVFENYVQVRETAQGHQGTGLGLGIVQSLVRLMGGEIRITDKAMGEKGTCFQFNVLLTTLESPPVSDMK | not soluble
MGSDKIHHHHHHMSVRNFMAYHQLSYTFLNHQKLPLIIQPQAKAEGNIDVLKQFLKEENTLFKEQLLNYGAIILRGFHVNTAEQFLEVIRSSDLGPNYSYDFCPIPRTQIRENIYTSINIHPSFNLALHNEKSYDQDFPSHIFFNCIHAPQTGGDTALADGNKIWFSLPKLLQKKLQSKGILYRRHYYGSGIQYKIIRSIGKNSGCMTWMERFQTDDQNKVEVMLQQMGVQFRWIQGNGLIIEQLLPACRNHPISGKLVWFNQSNHANHYYNGTSDYIKSKINNTFSRFILLHKYFHPYIAFYGDGEPLSKQEADCINSAIQKNTVSTAWQPGDVMIVDNFSCLHGKTPHTGNRLILVGLTKYFD | not soluble
DKMDGAPSRVLHIRKLPGEVTETEVIALGLPFGKVTNILMLKGKNQAFLELATEEAAITMVNYYSAVTPHLRNQPIYIQYSNHKELKT | soluble
ERSPFPELLPFGEVSVRDSMLYLFVRPDMAGKEVFIPVNGEFLEEVSNLTNASPLNMDIRKTGVRIRMPASMPESFLVLALAFDRNDFVLAGRPQGYPLHMANSSRIYGHSCWDYYTGFKSITGMKWQAVSAPRAIIYTDMEAGKTLRLSVGREEREITLEGGKSEEVSISHDGLSWGKPYVRQVGGVFGMIPDNILRGDSIPLPLTKGWEEMPVGQVEKKPWGEISSCLLVQDIVSDREQTVACHLTFGNGIYVTLNGKQITAELIRETGLAHELTVCLPLQKGKNRLAVKFMNRFGEELIRGVSWPKSYTRYLLPIEGFSLEKVGKKGIPIELRPASVRYQGASASIPNIALL | not soluble
MKAAPLIGISRHRLSTDGEGVTTLVAFHGCPLRCKYCLNPQSLHSEGIWKNYDCEQLYEEVRQDELYFLATNGGITFGGGEPCLQSDFIYEFRQLCGQEWQLSVETSLNVTQENIEKLVPVVDSYIIDIKDINNTIYQKYTGKNNEKVLHNLQYLIEHGKNEQIIVRTPVIPAYNTENDVDNSIRLLKEMGIIQFDRFTYKTPNNCQP | not soluble
MKPYERLLEHNIKPSMQRIAIMEYLMNHPIHPSADDIYTALSPSMPTLSKTTVYNTLRLFSEQGAALMLTIDEKNTNFDADTSVHSHFLCRYCGHIYDLKSPEAVKKVESLEMDGHQVTEVHYYYKGICKNCLRKDKETRID | not soluble
MGVELSLDPPVCPIQANGGVSTHKIINHCDKMLAYKIKSSNNSNYSVNTIFGLIQIGYTADLIITRKPGKPQADKLVIQFAAVEQTCRDGCICQGCICQWTANWRVLWRDDHQAVSC | not soluble
MESGSWRPPFSTGKIVGNYGLLKLYLEVAREKGRRDLVDKALISEDDVDMLRRLSASPGATAEDFVNALEERFVERVDPEVASEALARAGINVDGDTARRMIARILAGWLVEMGEEMKLYRLRRSWED | soluble
MGSDKIHHHHHHMNQEKIQELVSRSQQDDKRAFALLVSEFQPLVFRLAFRLLCDEEEARDITQETFVKVWLSLKTYNQENRLSTWLYKITCNTCYDRLRSLRHSPLDNESAFSDSVNIPSDDHIEISLSNKQLKELILRYTNELPPQQKLVFTLRDVEELEVAEVQIITGLSPEKIKSTLYLARKNIRNKMNQIDPDL | not soluble
